Source: the nanobody polyreactivity screen of Harvey et al. (2022)

Assay: yeast display, Sf9 membrane polyspecificity reagent, FACS + sequencing; frameworks hold sequencing errors
In short: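 Polyreactivity labels are assigned by the sorting gate from which each nanobody was recovered. The gates were low and high (top ~1%), set on anti-HA fluorescence for expression and streptavidin fluorescence for reagent binding. Before sorting, galactose-induced (36–48 hours) yeast display cells were stained for 1 hour at 4 °C with 10% biotinylated, detergent-solubilized Sf9 membrane reagent.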

Sequence	polyreactivity (PSR sort gate)
QVQLVESGVGLVQAGGTLRLSCAASGIIISRYTMGWYRQAPGKERELVAAITSSGITYYADSVKGRFTISRDNAKNTVYLQLNSLKPEDTAVYYCARETYGDYVHYDYWGLGTQVTVSS	low polyreactivity
QVQLVESGGGLVQAGGSLRLSCAASGITLNRNAMGWYRQAPGKERELVARISRRGGTTYYADSVKGRFTISRDNAKNTVYLQMNSLKPEDTAVYYCNAGPYGGNPFDYWGQGTQVTVSS	high polyreactivity
QVQLVESGGGLVQAGGSLRLSCADSGRTFYRYAMVWYRQSPGKERELVAAITTSGGSTYYADSVKGRFTISRDNAKNTVYLQMNSLKPEDTAVYYCAATYYGYHIRDDYWGQGTQVTVSS	low polyreactivity
QVQLVESGGGLVQAGGSLRLSCAASGSIFDPYTMGWYRQAPGKERELVAAINWSGGSTYYADSVKGRCTISRDNAKNTVYLQINSLKPEDTAVSHCNADPHGYYGYGYDYWGQGTQVNVSS	low polyreactivity
QDQLVESGGGLVQAGGSLRLSCAASGSTFHWYVMGWYRQAPGKERELVAAISQSGGNTYYADSVKGRFTISRDNAKNTVYLQMNSLKPEVTAVFYCAADSVGVFNTTFFQFEYWGQGTQVTVSS	high polyreactivity
QVQLQESGGGLVQAGGSLRLSCAASGSIFDYVSMGWYRQAPGEERELVVTITLGSNTYYADSVKGRFTISSDIAKNSVYLQMNSLNPEDTAVYYCAASALWGYVYPYWGLGTQVTVSS	high polyreactivity
QVQLVESGGGLVQAGGSLRLSCAASGRTFESYGMGWYRQAPGKERELVAAITWSGGDTYYADSVKGRFTISRDNAKNTVYLQMNSLKPEDTAVYYCAKEQGLYSVSPYDYWGQGTQVTVSS	low polyreactivity
QVQLVESGGGLVQAGGSLRLSCAASGSIFGGNTMGWYRQAPGKERELVAAISRSGGSTYYADSVKGRFTISRDNAKNTVYLQMNSLKPEDTAVYYCNRKQAGHAQGYDYWGQGTQVTVSS	high polyreactivity
QVQLVESGGGLVQAGGSLRLSCAASGRIFPWYAMGWYRQAPGKERELVAAITSGGGSTSYADSVKGRFTISRDNAKNTVYLQMNRLKPEDTAVYYCAARRWISSHSYKYGYWGQGTQVTVSS	high polyreactivity
QVQLVESGGGLVQAGGSLRLSCAASGFIFHLNAMGWYRQAPGKERELVAAIRSSGGSTYYADSVKGRFTISRDIAKNTVYFQMISMKREDTAVYYCAARGSSGLTRRGYYWGQGTQVNVSS	high polyreactivity
QVQLVESGGGLVQAGGSLRLSCAASGRIFSRYAMGWYRQAPGKERELVATITISGGSTYYADSVKGRFTISRDNAKNTVYLQMNSLKPEDTAVYYCAAETTASYYKRTDDYDYWGQGTQVTVSS	low polyreactivity
QVQLVESGGGLVQAGGSLRLSCAASGRIFASYTMGWYRQAPGKETELVAAISWRGDGTYYADSVKGRFTISRDYAKNTVYLQMNSLKPEDTAVYYCAADYVYYYHEYDYWGQGTQVTVSS	low polyreactivity
QVQLVESGGGLVQAGGSLRLSCAASGSTIWIYAMGWYRQAPGKERELVAAINWSGGNTYYADSVKGRFTISRDNAKNTVYLQMNSLKPEDTAVYYCAAAFYIYGVEGDYWGQGTQVTVSS	low polyreactivity
QVQLVESGGGLVQAGGSLRLSCAASGLIFVVYVMGWYRQAPGKERELVAAISGSGDSTYYADSVKGRFTISRDNAKNTVYLQMNSLKPEDTAVYYCNARSISRKKGYPPQRSDGYWGQGTQVTVSS	high polyreactivity
QVQLVESGGGLVQAGGSLRLSCAASGFTLAGYAMGWYRQAPGKERELVAAITSSGGSTFYADSVKGRFTISRDNAKNTVYLQMNSLKPEDTAVYYCAAKWAVVSGYGYWGQGTQVTVSS	high polyreactivity
QVQLVESGGGLVQAGGSLRLSCAASGRIFRGYAMGWYRQAPGKEREFVAAITKNGGSTYYADSVKGRFTISRDNAKNTVYLQMNSLKPEDTAVYYCNAGTFTRRRGLDYWGQGTQVTVSS	low polyreactivity
QVQLVESGGGLVQAGGSLRLSCAASGRIFRYNAMGWSRQAPGKERELVAAISRRGGTTYYADSVKGRFTISRDNAKNTVYLQMNSLKPEDTAVYDCAAQYRQRRHDYWGQGTQVTVSS	high polyreactivity
QVQLVESGGGLVQAGGSLRLSCAASGRIFPHNAMGWYRQAPGKERELVAAIRFSGGNTYYADSVKGRFTISRDNAKNTVYLQLNSLKPEDTAVYYCFVYGYVPYNYWGQGTQVTVSS	low polyreactivity
QVQLVESGGGLVQAGGSLRLSCAASGSIFVGNAMGWYRQAPGKERELVAAISSGGSTYYADSVKGRFTISRDNAKNTVYLQMNSLKPEDTAVYYCAAYYVRRYSSRPKDDYWGQGTQVTVSS	low polyreactivity
QVQLVESGGGLVQAGCSLRLSCAASGFTFSYYAMGSYRQAPGKERELVASISRSGNTYYADSVKGRFTISRDNAKNTVYLQMNSLKPEDTAVYYCAAKRKSYYSYNFDYWGQGTQVTVSS	high polyreactivity
QVQLVESGGGLGQAGGSLRLTCAASGSTFDYYAMGWYRPAPRKERELVAAISSSGSSTYYADSVKGRFTISRDIAKNTVYLQMNSLNPEDTAVYFCAIGTNYRDDYWGQGTQVTVSS	low polyreactivity
QVQLVESGGGLVQAGGSLRLSCAASGFTFASYAMGWYRQAPAKEREFVAAITSRGGNTYYADSVKGRFTISRDNAKNTVYLQMNSLKPEDTAVYYCAAKSTYVVSKMNYWGQGTQVTVSS	high polyreactivity

Sequence	polyreactivity (PSR sort gate)
QDQLVESGGGLVQAGGSLRLSCAASGFTFYSYAMGWYRQAPGKEREFVATITSSGGSTYYADSVKGRFTISRDTAKNTVYLQINSLNTEDTAVYYCAKDRYLYYRRRGQYDYWGQGTQVTVSS	high polyreactivity
QVQLVESAGGLVQAGRSLRLSCAASGYTFAKYTKGWYREATGKERELVAAISRGGSTTYADSVKGRFTISRDNAKNTVYLQMHSLKPEDTAVYYCAADVHRVVLEYDYWGQGTQVTVSS	low polyreactivity
QVQLHESGGGLVQAGGGLRLTCAASGSISSTGFMGWYRQAPCKELEPVAAIAPGPTTYYADSGKGRFTISRDNAKNTVYLQMTSPRPEDTAVNYGAVFTDNRVAFLYWGQGTQVTVSS	low polyreactivity
QVQLVESGGGLVQAGGSLRLSCAASGGIFWSYAMGWYRQAPGKERELVAAISSGTYYADSVKGRFTISRDNAKNTVYLQMNSLIPEDTAVYYWNVQTYNVAWFYRYDMNYWGQGPQVTVSS	low polyreactivity
QVQLGESGRGLVPAGGSLRLSCASSGSIFDRNARGWYRQAPGKERELVAAISSRGGSTYYADSVKGRFTISRDNAKNTVYLQMNSLKPEDTAVYYCNKVRTYGYDYWGQGTQVTVSS	high polyreactivity
QVQLVESGGGLVQAGGSLRLSCAASGFIFKLNAMGWYRQAPGKERELVATITRGGDTKYADSVKGRFTISRDNAKNTVYLQMNSLKPEDTAVYYCAAGYPYSYRDYYYWGQGTQVTVSS	high polyreactivity
QVQLVESGGGLVQAGGSLRLSCAASGYIFSLYAMGWYRQAPGKERELLADITTSAGSTYYADSVKGRFTISRDNAKNTVYLQMISLKPEDTAVYYCAAAVYGHSYYDYDYWGLGTQVTVSS	low polyreactivity
QVQLVESGGGLVQAGGSLRLSCAASGSIFWWNAMGWYRQAPGKERELVGAITVSGSSTHYADSVKGRFTISRDNAKNTVYLQMNSMKPEDTAVYYWGQGTQVTVSS	low polyreactivity
QVQLVESGGGLVQAGGSLRLSCAASGSILGGNTMGGYRQAPGKERELVAAISRSGGSTYYADSVKGRLTISRDNAKNTVYLQMNSLKPEDTAVYYCNRKQAGHAQGYDYWGQGTQVTVSS	high polyreactivity
QVHLVESGGGLVQAGGSLHLSCAPSGRTFGYYAKGGYRQAPGKEREFVAAISHSAGSTSYADSVKGRFTLSRDNAKNTVYLQMNSLKPEDTAVYYCATPSQLHPYEYWGQGSQVTVSS	low polyreactivity
QVQLVESGGGLVQAGGSLRLSCAASGRSFGKNAMGWYRQAPGKERELVAAISTSGGRTYYADSVKGRFTISRDNAKITFFLQMNSLKPEDTAVYYCNAKGWTRPPGYDYWGQGTQVTVSS	high polyreactivity
QVPLVESGGGLVQAGGSLRISCAASFRYNTMGWYRQAPGKERELVAAISGSGSRTYYADSVKGRFTISRDNAKITVYLQMNSLKPEDTAVFYCAALSYRNSEVGTSRGDYWGQGTQVTVSS	high polyreactivity
QVQLVESGGGLVKAGGTLSLSCAASGFIFGFNAMGWYRQAPGKERELVADITSSGGSTYYADSVKGRFTISRDNAKNTVYLQMNSLKPEDTAVYYCAADGWWHNFYPGTGLDYWGQGTQVSVSS	low polyreactivity
QVQLVESGGGLVQAGGSLRLSCAASGRTFLINAMGWYRQAPGKERELVADITGRGSSTYYADSVKGRFTISRDNAKNTVYLQMNSLKPEDTAVYYCNAVLRKITYDYWGQGTQVTVSS	high polyreactivity
QVQLVESGGGLVQAGGSLRLSCAASGITFVRYAMGWYRQAPGKERELVAAIRQNGGDTYYADSVKRRFTISRDNAKNTDYLQMNSLKPEDTAVYYCNARMRGAGGYTYYYWGQGTQVTVSS	high polyreactivity
QVQLVESGGGLVQAGGSLRLSCAASGIIFRLYGMGWYRQAPGKERELVAGINTGGSTYADSVKGRFTISRDNAKNTVYLQMNSLKPEDTAVYYCATGPYLIYDYWGQGTQVTVSS	low polyreactivity
QVQLVESVGGLVQAGGSLRLSCAASGLTSGLNAMGWYRQAPGKERELVATIRTNGGSTYYADSVKGRFTISRDNAKNTVYLQMNSLKPEDTAVYYCAADSVLDRPVLYLWPWYLGDYWGQGTQVTVSS	low polyreactivity
QVQLVESGGGLVQAGGSLRLSCASSGSTFWPNAMGWYRQAPGKERELVAAITGGGGTNYADSVKGRFTISRDNAKNTVYLQMNSLKPEDTAVYYCAAKKVNSRSHVKYYYWGQGTQVTVSS	high polyreactivity
QVQLVESGGGLVQAGGSLRLSCDASGRTFLYYAMGWSRQAPGKERELVAAISSGGSTNYADSVKGRFTISRDNAKNTVYLQMNSLKPEDTAVYYCNADYTSRDTSDVIYEYDYWGQGTQVTVTS	low polyreactivity
QVQLVQSGVGLDQAGGSLRLSCAASGSISSQNAMGWYRQAPGKESELVAAISWIGGSTYYADSVKGRFTISRDNAKNTVYLQMNSLKPEDTAVYYCAKDRASGFKYYYWGLGTQVTVSS	low polyreactivity
QVQLVESGGGLVQAGCSLRLSCAASGYIFYPYAMGWYRQAPGKERELVAAISGSGSGTYYADSVKGRFTISRDNAKNTVYLQMNSLKPEDTADYYCAKYVYDNVWMDYWGQGTQVTVSS	high polyreactivity
